This passage reports Kd and relative stoichiometry of binding (Aaa : N-Aaa : C-Aaa) results from paper PMC3386970.

Common to all, as to test: SPR; BIAcore 2000. Aaa, N-Aaa and C-Aaa amine-coupled at low density to a C1 chip (149, 96 and 72 pg/mm^2, nearly equimolar). Fg, Fn or Vn injected as analytes at 50 µl/min, 25°C. KD from the kinetics of the initial phases (binding biphasic at higher concentrations).
Assay [1] addresses C-terminal CHAP domain of Aaa (6 x His-C-Aaa) (Staphylococcus aureus 4074).
In assay [2] the target is N-terminal LysM domain of Aaa (6 x His-N-Aaa) (Staphylococcus aureus 4074).
In assay [3] the target is autolysin/adhesin Aaa from Staphylococcus aureus (6 x His-Aaa) (Staphylococcus aureus) (UniProt Q2G0U9).

Sequence of N-terminal LysM domain of Aaa (6 x His-N-Aaa) (Staphylococcus aureus 4074) (P0C1U7 26-214 limits assumed): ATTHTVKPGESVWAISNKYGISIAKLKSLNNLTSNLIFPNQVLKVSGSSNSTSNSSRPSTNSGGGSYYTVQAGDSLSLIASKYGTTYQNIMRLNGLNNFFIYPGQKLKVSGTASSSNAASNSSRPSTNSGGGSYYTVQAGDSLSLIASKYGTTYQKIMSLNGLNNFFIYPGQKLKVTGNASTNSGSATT
Sequence of C-terminal CHAP domain of Aaa (6 x His-C-Aaa) (Staphylococcus aureus 4074) (P0C1U7 215-334 limits assumed): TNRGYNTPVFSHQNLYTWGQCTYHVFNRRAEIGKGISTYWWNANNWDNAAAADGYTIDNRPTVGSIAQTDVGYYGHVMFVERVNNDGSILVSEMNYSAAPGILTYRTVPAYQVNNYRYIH

In the case of “fibrinogen (from UniProt P02671 36-866; P02675 45-491; P02679 27-453) (complex)”, the Kd (as a rule, a measure of binding affinity in units of concentration) in assay [1] stood at 0.74 nM; in assay [2], 0.41 nM; in assay [3], 0.76 nM. The results for the relative stoichiometry of binding (Aaa : N-Aaa : C-Aaa) in assay [1], in assay [2] and in assay [3] were 1, 2 and 4, respectively.
Regarding “fibronectin (from UniProt P02751 32-2477) (natural protein)”, the results for the Kd in assay [1], in assay [2] and in assay [3] were 6.8 nM, 5.1 nM and 6 nM, respectively. The results for the relative stoichiometry of binding (Aaa : N-Aaa : C-Aaa) in assay [1], in assay [2] and in assay [3] were 1, 1 and 2, respectively.
Turning to vitronectin (natural protein), the Kd stood at 20 nM in assay [1], 18 nM in assay [2] and 18 nM in assay [3]. In addition, the relative stoichiometry of binding (Aaa : N-Aaa : C-Aaa) stood at 1 in assay [1], 1 in assay [2] and 2 in assay [3].
